Target: T1, 重组PE免疫毒素 (recombinant Pseudomonas exotoxin A, partial sequence) (Pseudomonas aeruginosa (绿脓杆菌), UniProt P11439 173-638)
T1 construct: also called 重组PE抗原; 重组蛋白PE
T1 sequence: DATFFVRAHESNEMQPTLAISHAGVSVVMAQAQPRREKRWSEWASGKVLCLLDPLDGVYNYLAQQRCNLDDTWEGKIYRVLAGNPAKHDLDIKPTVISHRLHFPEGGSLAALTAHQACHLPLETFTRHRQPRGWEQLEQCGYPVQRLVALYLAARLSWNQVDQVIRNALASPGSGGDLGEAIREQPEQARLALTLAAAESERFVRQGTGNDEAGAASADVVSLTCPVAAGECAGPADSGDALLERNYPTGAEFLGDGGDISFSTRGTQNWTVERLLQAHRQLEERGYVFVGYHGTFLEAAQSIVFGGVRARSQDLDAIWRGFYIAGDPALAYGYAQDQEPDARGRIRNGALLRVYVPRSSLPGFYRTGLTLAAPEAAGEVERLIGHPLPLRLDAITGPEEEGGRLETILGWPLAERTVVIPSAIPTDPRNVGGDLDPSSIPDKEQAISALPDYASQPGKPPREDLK
Test: SPR, Biacore T100, 1:1 binding fit

Row | Binder | Kd
1 | 纳米抗体VHH-PE 2 (VHH) ESGGGLVQAGGSLRLSGVASRRTFCNYLDAMGWLSLVTGKERELVAHITGNRGDVMYLDSVKAGSTISRVKTNSTVYLQMNSMKPEDTHVYYWAPKATGFFSPKEEEKYNWWGQGTQ | 4.85 nM
2 | 纳米抗体VHH-PE 1 (VHH) VHH: ESGGGLVQAGGSLRLSCAASGRTFSSTGHTFSSYAMGWFRQTPGKEREFVAAISWSGTSTYYADSVKGRFTISRDNAKNTVYLQMNSLKPEDTAVYYCAARFWDYGLGSSDLKSPREYDYWGQGTQ | 12.2 nM

— patent CN107827981A (SHENZHEN GUOCHUANG NANOMETER ANTIBODY TECH CO LTD, dated 2018)
